T1: recombinant human LAG3 protein (rhLAG3), HIS-tagged (ACRO) or biotinylated (R&D Cat #2319-C3) (human, UniProt P18627 23-450, biotinylated in part of the assays)
T1 sequence: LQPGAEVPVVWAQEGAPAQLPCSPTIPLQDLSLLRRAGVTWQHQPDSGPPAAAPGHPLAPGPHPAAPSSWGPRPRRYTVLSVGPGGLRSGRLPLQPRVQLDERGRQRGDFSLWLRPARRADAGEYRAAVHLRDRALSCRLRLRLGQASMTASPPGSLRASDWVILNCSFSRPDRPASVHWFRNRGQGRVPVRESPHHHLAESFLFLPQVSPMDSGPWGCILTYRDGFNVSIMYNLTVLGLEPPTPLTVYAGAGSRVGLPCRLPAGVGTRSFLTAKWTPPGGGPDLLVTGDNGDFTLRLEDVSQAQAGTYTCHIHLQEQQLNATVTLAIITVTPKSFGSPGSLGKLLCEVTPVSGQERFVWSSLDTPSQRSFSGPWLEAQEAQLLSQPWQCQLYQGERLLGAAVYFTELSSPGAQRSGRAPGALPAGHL


Assays:
[1] = target: PD-1 (residues 1-199) C-terminally fused to the beta-galactosidase enzyme acceptor (EA) fragment, on U2OS … (human, UniProt Q15116 25-199); assay: cell-based or functional assay
[2] = target: LAG3 (residues 1-477) C-terminally fused to the beta-galactosidase ProLink (PK) fragment, on U2OS cells (human); assay: cell-based or functional assay
Sequence of LAG3 (residues 1-477) C-terminally fused to the beta-galactosidase ProLink (PK) fragment, on U2OS cells (human) (P18627 1-477): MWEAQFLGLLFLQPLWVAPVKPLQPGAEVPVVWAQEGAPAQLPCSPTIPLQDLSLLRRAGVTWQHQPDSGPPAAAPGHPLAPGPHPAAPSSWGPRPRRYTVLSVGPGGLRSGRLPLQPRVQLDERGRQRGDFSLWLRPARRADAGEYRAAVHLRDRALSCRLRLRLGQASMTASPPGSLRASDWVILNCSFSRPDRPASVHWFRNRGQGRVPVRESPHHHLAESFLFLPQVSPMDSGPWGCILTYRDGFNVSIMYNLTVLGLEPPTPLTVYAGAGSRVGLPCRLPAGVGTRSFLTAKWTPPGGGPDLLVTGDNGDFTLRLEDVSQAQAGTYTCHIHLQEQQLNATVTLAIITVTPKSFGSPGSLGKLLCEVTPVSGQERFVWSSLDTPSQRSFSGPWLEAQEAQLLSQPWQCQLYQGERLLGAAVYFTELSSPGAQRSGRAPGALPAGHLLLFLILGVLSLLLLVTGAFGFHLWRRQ

[3] = target: T2, rabbit Fc-tagged recombinant human PD1 (rhPD1-rabbit Fc) (human, UniProt Q15116 25-167, limits assumed); assay: flow cytometry competition: inhibition of rhPD1-rabbit Fc binding to human PD-L1 on CHO cells; PE anti-rabbit IgG detection
T2 construct: also called recombinant human PD-1 protein
T2 sequence (Q15116 25-167 limits assumed): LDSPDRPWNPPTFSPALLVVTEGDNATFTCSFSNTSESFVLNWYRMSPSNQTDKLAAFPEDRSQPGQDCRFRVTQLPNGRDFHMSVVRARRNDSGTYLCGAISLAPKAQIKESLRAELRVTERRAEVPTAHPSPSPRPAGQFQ
Protocol: (§1) CHO-k cells stably expressing human PD-L1 or PD-L2 were used to measure the ability of anti-PD1/LAG3 bi-specific antibody constructs to block rabbit Fc-tagged recombinant human PD1 (rhPD1-rabbit Fc) protein binding. Cells were seeded at 100,000 cells/well in 100 μL of FACS buffer in 96-well polypropylene plates. The cells were centrifuged and resuspended with test antibodies (2× concentration) diluted in FACS buffer, immediately followed by equal volume of rhPD1-rabbit Fc (added at 2× concentration; 0.2 ng/mL and 0.1 ng/mL final for PD-L1 and PD-L2, respectively). Cells were incubated on ice for 1 hour and washed twice. rhPD1-rabbit Fc binding on CHO-human PD-L1 or PD-L2 cells was detected with R-Phycoerythrin AffiniPure F(ab′)₂ Fragment Goat Anti-Rabbit IgG (H+L) (1:200 dilution, Jackson ImmunoResearch) for 30 minutes. The cells were washed twice with FACS buffer, fixed in 4% paraformaldehyde in PBS for 20 mins on ice in the dark, washed twice with FACS buffer, and analyzed using the BD LSR II Flow Cytometer. Data were analyzed using FlowJo (FlowJo, LLC; Ashland, Oreg.) to determine mean fluorescence intensities. Prism 6 software was used to create one site, specific binding with Hill slope curves (Log transform) to determine IC₅₀ values.

[4] = target: T2, rabbit Fc-tagged recombinant human PD1 …; assay: flow cytometry competition: inhibition of rhPD1-rabbit Fc binding to human PD-L2 on CHO cells; PE anti-rabbit IgG detection
Protocol: as §1

[5] = target: T1, recombinant human LAG3 protein …; assay: flow cytometry competition: inhibition of biotinylated rhLAG3 binding to MHC class II on Daudi cells; PE-streptavidin detection
Protocol: Daudi cells expressing Major Histocompatibility Class II (MHCII) molecules, the natural ligand for LAG3, were used to measure the ability of anti-PD1/LAG3 bi-specific antibody constructs to block biotinylated (ThermoFisher, Cat #21329) recombinant human LAG3 protein (rhLAG3, R&D Cat #2319-C3) binding. Cells were seeded at 100,000 cells/well in 100 μL of FACS buffer in 96-well polypropylene plates. The cells were centrifuged and resuspended with test antibodies (2× concentration) diluted in FACS buffer, immediately followed by equal volume of biotinylated rhLAG3 (added at 2× concentration; 7.5 μg/mL final). Cells were incubated on ice for 1 hour and washed twice. Biotinylated rhLAG3 binding was detected with 2 μg/mL R-Phycoerythrin-conjugated Streptavidin (eBioscience) for 30 minutes. Cells were washed twice with FACS buffer, fixed in 4% paraformaldehyde in PBS for 20 mins on ice in the dark, washed twice with FACS buffer, and analyzed using the BD LSR II Flow Cytometer. Data were analyzed using FlowJo (FlowJo, LLC; Ashland, Oreg.) to determine mean fluorescence intensities. Prism 6 software was used to create one site, specific binding with Hill slope curves (Log transform) to determine IC₅₀ values. […]

Binder | EC50 of beta-galactosidase enzyme-fragment complementation (RLU) on U2OS cells co-expressing PD-1-EA and LAG3-PK; PD-1/LAG3 cell bridging, needs both targets [1] [nM] | EC50 of beta-galactosidase enzyme-fragment complementation (RLU) on U2OS cells co-expressing PD-1-EA and LAG3-PK; PD-1/LAG3 cell bridging, needs both targets [2] [nM] | IC50 [3] [nM] | IC50 [4] [nM] | IC50 [5] [nM]
PD-1/LAG3 Bi-specific Construct C: aPD1 1353-G10 Vk1-39LC scFvFc zwB V262E; aLAG3 1449-G09.2 Fab zwA V262E (bispecific antibody, human IgG1, kappa, The N-terminal Met is not included) scFv: EVQLVQSGAEVKKPGASVKVSCKASGYRFPHYGISWVRQAPGQGLEWMGWISAYNGNTNYAQKLQGRVTMTTDTSTNTAYMELRSLRSDDTAVYYCARDVDYGTGSGYWGQGTLVTVSSGGGGSGGGGSGGGGSDIQLTQSPSSLSASVGDRVTITCSGDALPKQYAYWYQQKPGKAPKLLIYKDTERPSGVPSRFSGSSSGTKVTLTISSLQPEDFATYYCQSADNSITYRVFGGGTKVEIKAAGSDQEPKSSDKTHTCPPCPAPELLGGPSVFLFPPKPKDTLMISRTPEVTCEVVDVSHEDPEVKFNWYVDGVEVHNAKTKPREEQYNSTYRVVSVLTVLHQDWLNGKEYKCKVSNKALPAPIEKTISKAKGQPREPQVYVLPPSREEMTKNQVSLLCLVKGFYPSDIAVEWESNGQPENNYLTWPPVLDSDGSFFLYSKLTVDKSRWQQGNVFSCSVMHEALHNHYTQKSLSLSPGK heavy: not shown light: not shown | 0.13 | 0.13 | 2.4 | 1.5 | 24
PD-1/LAG3 Bi-specific Construct B: aPD1 1353-G10 scFvFc zwB R28T/P30D/H31S V262E; aLAG3 1449-G09.2 Fab zwA V262E (bispecific antibody, human IgG1, kappa, The N-terminal Met is not included) scFv: EVQLVQSGAEVKKPGASVKVSCKASGYTFDSYGISWVRQAPGQGLEWMGWISAYNGNTNYAQKLQGRVTMTTDTSTNTAYMELRSLRSDDTAVYYCARDVDYGTGSGYWGQGTLVTVSSGGGGSGGGGSGGGGSSYELTQPPSVSVSPGQTARITCSGDALPKQYAYWYQQKPGQAPVMVIYKDTERPSGIPERFSGSSSGTKVTLTISGVQAEDEADYYCQSADNSITYRVFGGGTKVTVLAAGSDQEPKSSDKTHTCPPCPAPELLGGPSVFLFPPKPKDTLMISRTPEVTCEVVDVSHEDPEVKFNWYVDGVEVHNAKTKPREEQYNSTYRVVSVLTVLHQDWLNGKEYKCKVSNKALPAPIEKTISKAKGQPREPQVYVLPPSREEMTKNQVSLLCLVKGFYPSDIAVEWESNGQPENNYLTWPPVLDSDGSFFLYSKLTVDKSRWQQGNVFSCSVMHEALHNHYTQKSLSLSPGK heavy: not shown light: not shown | 0.16 | 0.16 | 4.7 | 3.3 | 24

From patent US20200079850A1 (SUTRO BIOPHARMA, published 2020)
